Source: publication PMC2667179

Target: sucrose synthase (Nicotiana tabacum (endogenous in BY-2 cells))
Assay: native gel or EMSA; two-dimensional blue native PAGE (4-14.5% gradient, 4°C) then SDS-PAGE of BY-2 plasma membrane proteins solubilized with 1% n-octyl-beta-D-glucopyranoside (750 mM amino caproic acid, 100 mM BisTris pH 7.0); subunits detected by immunoblotting on separate blots; association judged by comigration

stoichiometry N: 4
Substance: sucrose synthase (enzyme)
